Where a chain is given by its changes, count along the chain named. In names and notes the source's numbering stands.
Legend:
Hsp90Ec N350C [1] = target: T1, Hsp90Ec N350C (E. coli, UniProt P0A6Z3 1-624, N350C); assay: cross-linking
Hsp90Ec N347C [2] = target: T2, Hsp90Ec N347C (E. coli, UniProt P0A6Z3 1-624, N347C); assay: cross-linking
Hsp90Ec K199C [3] = target: T3, Hsp90Ec K199C (E. coli, UniProt P0A6Z3 1-624, K199C); assay: cross-linking
Hsp90Ec N347C [4] = target: T2, Hsp90Ec N347C; assay: cross-linking; remark: listed apart in the source
Hsp90Ec L493C = Hsp90Ec L493C (E. coli, UniProt P0A6Z3 1-624, L493C); assay: pull-down
Hsp90Ec K45C = Hsp90Ec K45C (E. coli, UniProt P0A6Z3 1-624, K45C); assay: pull-down
Hsp90Ec K71C = Hsp90Ec K71C (E. coli, UniProt P0A6Z3 1-624, K71C); assay: pull-down
Hsp90Ec K99C = Hsp90Ec K99C (E. coli, UniProt P0A6Z3 1-624, K99C); assay: pull-down
Hsp90Ec K103C = Hsp90Ec K103C (E. coli, UniProt P0A6Z3 1-624, K103C); assay: pull-down
Hsp90Ec K199C [5] = target: T3, Hsp90Ec K199C; assay: pull-down
Hsp90Ec K492C = Hsp90Ec K492C (E. coli, UniProt P0A6Z3 1-624, K492C); assay: pull-down
Hsp90Ec K502C = Hsp90Ec K502C (E. coli, UniProt P0A6Z3 1-624, K502C); assay: pull-down
Hsp90Ec N347C [6] = target: T2, Hsp90Ec N347C; assay: pull-down
Hsp90Ec K560C = Hsp90Ec K560C (E. coli, UniProt P0A6Z3 1-624, K560C); assay: pull-down
Hsp90Ec N350C [7] = target: T1, Hsp90Ec N350C; assay: pull-down
Hsp90Ec K354C = Hsp90Ec K354C (E. coli, UniProt P0A6Z3 1-624, K354C); assay: pull-down
Hsp90Ec Q358C = Hsp90Ec Q358C (E. coli, UniProt P0A6Z3 1-624, Q358C); assay: pull-down
Hsp90Ec wild-type = Hsp90Ec wild-type (E. coli, UniProt P0A6Z3 1-624); assay: BLI

B1: CbpA J-domain A44C (domain or fragment, E. coli, UniProt P36659 1-78, looked up)
chain: MELKDYYAIMGVKPTDDLKTIKTAYRRLARKYHPDVSKEPDAECRFKEVAEAWEVLSDEQRRAEYDQMWQHRNDPQFN
binding result (Hsp90Ec N350C [1]): binds
binding result (Hsp90Ec N347C [2]): binds

B2: wild type CbpA J-domain fragment (residues 1-78) (domain or fragment, E. coli, UniProt P36659 1-78, looked up)
chain: B1 chain with C44A
binding result (Hsp90Ec K199C [3]): binds
binding result (Hsp90Ec N347C [4]): binds

B3: biotin-labeled CbpA (natural protein, E. coli, UniProt P36659 1-306, looked up)
chain: MELKDYYAIMGVKPTDDLKTIKTAYRRLARKYHPDVSKEPDAEARFKEVAEAWEVLSDEQRRAEYDQMWQHRNDPQFNRQFHHGDGQSFNAEDFDDIFSSIFGQHARQSRQRPATRGHDIEIEVAVFLEETLTEHKRTISYNLPVYNAFGMIEQEIPKTLNVKIPAGVGNGQRIRLKGQGTPGENGGPNGDLWLVIHIAPHPLFDIVGQDLEIVVPVSPWEAALGAKVTVPTLKESILLTIPPGSQAGQRLRVKGKGLVSKKQTGDLYAVLKIVMPPKPDENTAALWQQLADAQSSFDPRKDWGKA
modifications: biotin label (site not stated)
binding result (Hsp90Ec L493C): binds
binding result (Hsp90Ec K45C): binds
binding result (Hsp90Ec K71C): binds
binding result (Hsp90Ec K99C): binds
binding result (Hsp90Ec K103C): binds
binding result (Hsp90Ec K199C [5]): binds
binding result (Hsp90Ec K492C): binds
binding result (Hsp90Ec K502C): binds
binding result (Hsp90Ec N347C [6]): binds
binding result (Hsp90Ec K560C): binds
binding result (Hsp90Ec N350C [7]): binds
binding result (Hsp90Ec K354C): binds
binding result (Hsp90Ec Q358C): binds
Kd (Hsp90Ec wild-type): 11 ± 0.9 µM
